The text below walks through data of US20260242478A1 (published 2026).

The target of assay [1] is Anti-CD28 Fab (SEQ ID NOs: 696, 697). The assay is described as follows: phage binding ELISA; biotinylated anti-CD28 Fab on neutravidin plate, clonal phage supernatant, anti-M13 HRP.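 Note: crude clonal phage supernatants screened after wells were preincubated either with CD28 antigen in blocking buffer or with blocking buffer only, phage added without washing.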
Target sequence in this assay (VH, as listed by the source, chain 1 of 2): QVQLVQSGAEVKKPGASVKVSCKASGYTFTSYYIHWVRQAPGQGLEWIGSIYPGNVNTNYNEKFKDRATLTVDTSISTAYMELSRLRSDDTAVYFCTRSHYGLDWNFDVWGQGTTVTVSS
Target sequence in this assay (VL, as listed by the source, chain 2 of 2): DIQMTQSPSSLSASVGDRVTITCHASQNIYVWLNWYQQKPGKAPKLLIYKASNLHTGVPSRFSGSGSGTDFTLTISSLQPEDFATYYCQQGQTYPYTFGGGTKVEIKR
Method: (§1) After panning, phage infected bacteria were plated out and colonies picked into 96 well blocks. Clonal phage was then amplified and separated from bacterial cells via centrifugation.
(§2) Clonal phage were harvested as crude supematants and screened via standard ELISAs. […] Prior to the addition of clonal phage, wells were incubated with blocking buffer and CD28 antigen or blocking buffer alone. Without washing or aspirating, clonal phage supematants were then added to the wells and incubated for a short time. Wells were then washed followed by detection of bound phage using a horse radish conjugated anti-M13 antibody. Clonal phage of interest were then sent for sequence analysis.
The target is the same in assay [2]. As to the kind of experiment: phage binding ELISA on captured anti-CD28 Fab; competitor CD28 antigen pre-incubated in the wells.
Target sequence in this assay (VH, as listed by the source, chain 1 of 2): as the sequence (VH, as listed by the source, chain 1 of 2) above
Target sequence in this assay (VL, as listed by the source, chain 2 of 2): as the sequence (VL, as listed by the source, chain 2 of 2) above
Method: as §1, §2
Assay [3] has as its target T1, Anti-CD28 Fab (SEQ ID NOs: 696, 697).
T1 construct: In the phage ELISA the Fab was biotinylated and captured on neutravidin coated plates
The assay is described as follows: phage binding ELISA; biotinylated anti-CD28 Fab on neutravidin plate, clonal phage supernatant, anti-M13 HRP detection.
T1 sequence (VH, as listed by the source, chain 1 of 2): as the sequence (VH, as listed by the source, chain 1 of 2) above
T1 sequence (VL, as listed by the source, chain 2 of 2): as the sequence (VL, as listed by the source, chain 2 of 2) above

Assay [4] has the same target. The assay is described as follows: phage binding ELISA with the Fab-coated wells pre-incubated with CD28 antigen (competitor: CD28), anti-M13 HRP detection. A general note: An ELISA detects its analyte on a solid surface through an enzyme-linked reagent.
Target sequence in this assay (VH, as listed by the source, chain 1 of 2): as the sequence (VH, as listed by the source, chain 1 of 2) above
Target sequence in this assay (VL, as listed by the source, chain 2 of 2): as the sequence (VL, as listed by the source, chain 2 of 2) above
Method: as §1, §2
In assay [5] the target is T2, Anti-CD28 Fab (SEQ ID NOs: 696, 697).
T2 construct: Biotinylated and captured on neutravidin coated plates in the phage ELISA
The assay is described as follows: clonal phage ELISA on captured anti-CD28 Fab; wells pre-incubated with CD28 antigen as competitor.
T2 sequence (VH, as listed by the source, chain 1 of 2): as the sequence (VH, as listed by the source, chain 1 of 2) above
T2 sequence (VL, as listed by the source, chain 2 of 2): as the sequence (VL, as listed by the source, chain 2 of 2) above
Method: as §1, §2

For assay [6] the target is unchanged. The assay is described as follows: clonal phage ELISA; biotinylated anti-CD28 Fab on neutravidin plate, bound phage detected with anti-M13 HRP.
Target sequence in this assay (VH, as listed by the source, chain 1 of 2): as the sequence (VH, as listed by the source, chain 1 of 2) above
Target sequence in this assay (VL, as listed by the source, chain 2 of 2): as the sequence (VL, as listed by the source, chain 2 of 2) above
Method: as §1, §2
Assay [7] deals with T3, Anti-CD28 Fab (SEQ ID NOs: 696, 697).
T3 construct: Biotinylated and captured on neutravidin coated plates in the phage ELISA
The assay is described as follows: phage ELISA, clonal phage on biotinylated anti-CD28 Fab captured on neutravidin, anti-M13-HRP detection.
Method: as §1, §2

For assay [8] the target is unchanged. The assay is described as follows: phage ELISA on captured anti-CD28 Fab, wells first incubated with CD28 antigen (competitor).
Method: as §1, §2

Where no end group is shown, it is not given here.

B1: Phage-1178 (peptide)
peptide: YCDGHVVEYMSKCL
modifications: cysteine pairing not given here; also: displayed on phage by fusion to pIII, linker and pIII sequence not given here
notes: Clonal phage of the Peptide-87 library; not shown: fused to the pIII filament of the bacteriophage
Consider B1, for which the “Anti-CD28 Fab (SEQ ID NOs: 696, 697) signal” value in assay [1] was determined as 1.12. The “Anti-CD28 Fab signal in the presence of CD28” value in assay [2] turned out to be 0.08.

B2: Phage-1165 (peptide)
peptide: YCEGHRAEYMSKCL
Take B2: in assay [3], the “Anti-CD28 Fab signal (phage binding ELISA)” value is 1.16. The “Anti-CD28 Fab signal in the presence of CD28 (phage binding ELISA)” value in assay [4] came out at 0.09.

B3: Phage-1176 (peptide)
peptide: YCDGHEAEYMWKCL
modifications: cysteine pairing not given here; also: displayed on phage by fusion to pIII, linker and pIII sequence not given here
notes: as for B1
B3: in assay [1], the “Anti-CD28 Fab (SEQ ID NOs: 696, 697) signal” value is 1.13. Also, in assay [2], the “Anti-CD28 Fab signal in the presence of CD28” value is 0.1.

B4: Phage-1177 (peptide)
peptide: YCEGHAEQYMKKCL
modifications: cysteine pairing not given here; also: displayed on phage by fusion to pIII, linker and pIII sequence not given here
notes: as for B1
On to B4, for which the “Anti-CD28 Fab (SEQ ID NOs: 696, 697) signal” value in assay [1] stood at 1.12. The “Anti-CD28 Fab signal in the presence of CD28” value in assay [2] was found to be 0.07.

B5: Phage-1166 (peptide)
peptide: YCDGHSWIYMVKCL
Take B5: the “Anti-CD28 Fab signal (phage binding ELISA)” value in assay [3] is 1.16. Besides, the “Anti-CD28 Fab signal in the presence of CD28 (phage binding ELISA)” value in assay [4] turned out to be 0.06.

B6: Phage-1159 (peptide)
peptide: YCAGHSSEYIGKCL
Consider B6, for which the “Anti-CD28 Fab signal (phage binding ELISA)” value in assay [3] is 1.17. Also, the “Anti-CD28 Fab signal in the presence of CD28 (phage binding ELISA)” value in assay [4] turned out to be 0.06.

B7: Phage-1158 (peptide)
peptide: YCEGHSQTYMWKCL
As to B7, the “Anti-CD28 Fab signal (phage binding ELISA)” value in assay [3] worked out at 1.17. The “Anti-CD28 Fab signal in the presence of CD28 (phage binding ELISA)” value in assay [4] came out at 0.08.

B8: Phage-1160 (peptide)
peptide: YCEGHSQQYMWKCL
Turning to B8, the “Anti-CD28 Fab signal (phage binding ELISA)” value in assay [3] amounted to 1.17. Moreover, in assay [4], the “Anti-CD28 Fab signal in the presence of CD28 (phage binding ELISA)” value was found to be 0.05.

B9: Phage-1170 (peptide)
peptide: YCQGHLPQYIEKCL
modifications: cysteine pairing not given here; also: displayed on phage by fusion to pIII, linker and pIII sequence not given here
notes: as for B1
For B9, the “Anti-CD28 Fab (SEQ ID NOs: 696, 697) signal” value in assay [1] came out at 1.14. In addition, the “Anti-CD28 Fab signal in the presence of CD28” value in assay [2] turned out to be 0.06.

B10: Phage-1172 (peptide)
peptide: YCDGHEQQYMEKCL
modifications: cysteine pairing not given here; also: displayed on phage by fusion to pIII, linker and pIII sequence not given here
notes: as for B1
As for B10, in assay [1], the “Anti-CD28 Fab (SEQ ID NOs: 696, 697) signal” value is 1.14. Moreover, the “Anti-CD28 Fab signal in the presence of CD28” value in assay [2] turned out to be 0.06.

B11: Phage-1157 (peptide)
peptide: YCEGHAGVYMAKCL
Turning to B11, the “Anti-CD28 Fab signal (phage binding ELISA)” value in assay [3] was determined as 1.17. Also, in assay [4], the “Anti-CD28 Fab signal in the presence of CD28 (phage binding ELISA)” value came out at 0.05.

B12: Phage-1163 (peptide)
peptide: YCEGHLKEYMQKCL
Take B12: in assay [3], the “Anti-CD28 Fab signal (phage binding ELISA)” value was found to be 1.17. For the same molecule, the “Anti-CD28 Fab signal in the presence of CD28 (phage binding ELISA)” value in assay [4] is 0.07.

B13: Phage-1175 (peptide)
peptide: YCVGHSEQYMAKCL
modifications: cysteine pairing not given here; also: displayed on phage by fusion to pIII, linker and pIII sequence not given here
notes: as for B1
For B13, the “Anti-CD28 Fab (SEQ ID NOs: 696, 697) signal” value in assay [1] stood at 1.13. Besides, the “Anti-CD28 Fab signal in the presence of CD28” value in assay [2] stood at 0.06.

B14: Phage-1183 (peptide)
peptide: YCEGHLWEYLAKCL
Consider B14, for which the “Phage binding ELISA, Anti-CD28 Fab signal in the presence of CD28” value in assay [5] was 0.05. Further, the “Phage binding ELISA, Anti-CD28 Fab signal” value in assay [6] is 1.1.

B15: Phage-1184 (peptide)
peptide: YCEGHMGEYMLKCL
B15: in assay [5], the “Phage binding ELISA, Anti-CD28 Fab signal in the presence of CD28” value is 0.06. For the same molecule, the “Phage binding ELISA, Anti-CD28 Fab signal” value in assay [6] was determined as 1.1.

B16: Phage-1173 (peptide)
peptide: YCDGHLQMYMMKCL
modifications: cysteine pairing not given here; also: displayed on phage by fusion to pIII, linker and pIII sequence not given here
notes: as for B1
Turning to B16, the “Anti-CD28 Fab (SEQ ID NOs: 696, 697) signal” value in assay [1] worked out at 1.14. Also, the “Anti-CD28 Fab signal in the presence of CD28” value in assay [2] came out at 0.07.

B17: Phage-1168 (peptide)
peptide: YCEGHLPQYMSKCL
B17: the “Anti-CD28 Fab signal (phage binding ELISA)” value in assay [3] turned out to be 1.15. Besides, in assay [4], the “Anti-CD28 Fab signal in the presence of CD28 (phage binding ELISA)” value was 0.09.

B18: Phage-1162 (peptide)
peptide: YCEGHAEQYMEKCL
Turning to B18, in assay [3], the “Anti-CD28 Fab signal (phage binding ELISA)” value is 1.17. In addition, in assay [4], the “Anti-CD28 Fab signal in the presence of CD28 (phage binding ELISA)” value came to 0.08.

B19: Phage-1155 (peptide)
peptide: YCDGHRPEYMSKCL
For B19, the “Anti-CD28 Fab signal (phage binding ELISA)” value in assay [7] came to 1.18. Besides, the “Anti-CD28 Fab signal in the presence of CD28 (phage binding ELISA)” value in assay [8] worked out at 0.07.

B20: Phage-1171 (peptide)
peptide: YCEGHAAAYMGKCL
modifications: cysteine pairing not given here; also: displayed on phage by fusion to pIII, linker and pIII sequence not given here
notes: as for B1
B20: the “Anti-CD28 Fab (SEQ ID NOs: 696, 697) signal” value in assay [1] amounted to 1.14. For the same molecule, the “Anti-CD28 Fab signal in the presence of CD28” value in assay [2] was determined as 0.08.

B21: Phage-1180 (peptide)
peptide: YCDGHIWPWIEKCL
modifications: cysteine pairing not given here; also: displayed on phage by fusion to pIII, linker and pIII sequence not given here
notes: as for B1
For the molecule B21, the “Anti-CD28 Fab (SEQ ID NOs: 696, 697) signal” value in assay [1] was found to be 1.11. Also, the “Anti-CD28 Fab signal in the presence of CD28” value in assay [2] is 0.11.

B22: Phage-1182 (peptide)
peptide: YCDGHAMEYMEKCL
Take B22: the “Phage binding ELISA, Anti-CD28 Fab signal in the presence of CD28” value in assay [5] worked out at 0.08. In assay [6], the “Phage binding ELISA, Anti-CD28 Fab signal” value was found to be 1.11.

B23: Phage-1174 (peptide)
peptide: YCEGHLYEYMWKCL
modifications: cysteine pairing not given here; also: displayed on phage by fusion to pIII, linker and pIII sequence not given here
notes: as for B1
For the molecule B23, the “Anti-CD28 Fab (SEQ ID NOs: 696, 697) signal” value in assay [1] is 1.13. Further, the “Anti-CD28 Fab signal in the presence of CD28” value in assay [2] came out at 0.07.

B24: Phage-1181 (peptide)
peptide: YCEGHSSLYLEKCL
modifications: cysteine pairing not given here; also: displayed on phage by fusion to pIII, linker and pIII sequence not given here
notes: as for B1
Turning to B24, the “Anti-CD28 Fab (SEQ ID NOs: 696, 697) signal” value in assay [1] amounted to 1.11. In addition, the “Anti-CD28 Fab signal in the presence of CD28” value in assay [2] stood at 0.08.

B25: Phage-1169 (peptide)
peptide: YCEGHVAEYRAKCL
modifications: cysteine pairing not given here; also: displayed on phage by fusion to pIII, linker and pIII sequence not given here
notes: as for B1
As to B25, the “Anti-CD28 Fab (SEQ ID NOs: 696, 697) signal” value in assay [1] worked out at 1.15. Also, the “Anti-CD28 Fab signal in the presence of CD28” value in assay [2] is 0.09.

B26: Phage-1179 (peptide)
peptide: YCAGHLPQYMHKCL
modifications: cysteine pairing not given here; also: displayed on phage by fusion to pIII, linker and pIII sequence not given here
notes: as for B1
As to B26, the “Anti-CD28 Fab (SEQ ID NOs: 696, 697) signal” value in assay [1] turned out to be 1.11. In assay [2], the “Anti-CD28 Fab signal in the presence of CD28” value turned out to be 0.08.

B27: Phage-1156 (peptide)
peptide: YCEGHMPEYLAKCL
Take B27: the “Anti-CD28 Fab signal (phage binding ELISA)” value in assay [3] is 1.18. For the same molecule, the “Anti-CD28 Fab signal in the presence of CD28 (phage binding ELISA)” value in assay [4] turned out to be 0.07.

B28: Phage-1164 (peptide)
peptide: YCEGHSYQYMQKCL
Take B28: the “Anti-CD28 Fab signal (phage binding ELISA)” value in assay [3] worked out at 1.16. In assay [4], the “Anti-CD28 Fab signal in the presence of CD28 (phage binding ELISA)” value was found to be 0.06.

B29: Phage-1167 (peptide)
peptide: YCDGHLSVYMSKCL
On to B29, for which the “Anti-CD28 Fab signal (phage binding ELISA)” value in assay [3] is 1.15. For the same molecule, the “Anti-CD28 Fab signal in the presence of CD28 (phage binding ELISA)” value in assay [4] turned out to be 0.07.

B30: Phage-1161 (peptide)
peptide: YCDGHLPDYMAKCL
Turning to B30, the “Anti-CD28 Fab signal (phage binding ELISA)” value in assay [3] worked out at 1.17. Also, the “Anti-CD28 Fab signal in the presence of CD28 (phage binding ELISA)” value in assay [4] is 0.07.
